Test system: GST-topo I
Sequence (chain, as listed by the source): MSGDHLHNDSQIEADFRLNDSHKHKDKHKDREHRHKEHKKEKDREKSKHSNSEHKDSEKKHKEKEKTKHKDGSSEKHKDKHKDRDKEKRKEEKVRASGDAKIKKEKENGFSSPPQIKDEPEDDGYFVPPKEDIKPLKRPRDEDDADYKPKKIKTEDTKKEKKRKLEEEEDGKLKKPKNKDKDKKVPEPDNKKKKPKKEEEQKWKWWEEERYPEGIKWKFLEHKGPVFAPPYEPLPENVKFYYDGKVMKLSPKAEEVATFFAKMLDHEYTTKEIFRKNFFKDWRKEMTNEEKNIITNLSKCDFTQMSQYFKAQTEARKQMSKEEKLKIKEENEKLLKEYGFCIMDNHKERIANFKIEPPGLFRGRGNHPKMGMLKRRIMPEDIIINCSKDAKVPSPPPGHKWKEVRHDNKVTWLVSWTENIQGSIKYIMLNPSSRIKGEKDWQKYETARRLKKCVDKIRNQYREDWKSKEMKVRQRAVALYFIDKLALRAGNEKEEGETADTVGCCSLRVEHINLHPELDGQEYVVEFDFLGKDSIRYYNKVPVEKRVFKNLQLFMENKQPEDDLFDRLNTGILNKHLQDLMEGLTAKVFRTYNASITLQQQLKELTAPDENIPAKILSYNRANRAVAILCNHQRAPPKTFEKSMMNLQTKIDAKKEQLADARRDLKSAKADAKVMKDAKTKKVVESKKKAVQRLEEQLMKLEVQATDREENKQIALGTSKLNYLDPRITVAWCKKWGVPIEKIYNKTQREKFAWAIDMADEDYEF

Substance: BRCA1/BARD1 (E3)
- in vitro ubiquitination, immunoblot with anti-ubiquitin: topo I is ubiquitinated by BRCA1
